The text below walks through data of patent publication US9138474B2, “Composition comprising expression or activity inhibitors of Ninjurin1 for the prevention and treatment of inflammatory disease” (SNU R&DB FOUNDATION, priority 2008, dated 2015).

The test system of one assay is Wnt7b expression. In words: Wnt7b expression (RT-PCR) in BV2 cells expressing Myc-Ninjurin1 treated with p38 inhibitor. The format is cell-based, rodent. Conditions: 0, 10, 30 uM, 24 hours. On the procedure:
Primary cultured human microvascular pericytes (Applied Cell Biology Research Institute) were cultured in Dulbecco's modified Eagle's medium (DMEM); Raw 264.7 cells (TIB-71™) and BV2 cells were cultured in DMEM; and HUVEC cells were cultured in M199 supplemented with 20% FBS (Invitrogen, Grand Island, N.Y.). Those cells were cultured at 37° C. in humid air composed of […] and 5% CO2. Raw cells and BV2 cells were transformed by using Lipofectamine Plus Reagent (Invitrogen). Cell lysate was prepared by using lysis buffer (40 mM Tris-Cl pH 8.4, 10 mM EDTA, 120 mM NaCl, 0.1% NP-40). To prepare culture solution to treat human microvascular pericytes, transformed macrophages were cultured in serum (FBS)-free DMEM for 24 hours, which were then filtered with 0.22 […] filter paper (Millipore), followed by 10 fold concentration using centrifugation filtering tube (Millipore). For the chemical treatment, cells were cultured at the density of 60-70% and then treated with Ang1 and Ang2 (500-1000 ng/ml) independently or together in serum free condition for 14-16 hours. To understand signal transduction pathway, cells were transformed with Mock or Ninjurin1 cDNA. Serum was depleted for 14-16 hours and then the cells were treated with SB203580 (Sigma), the p38 inhibitor, for 24 hours. […]

In assay [1] the test system is rodent originated macrophages (Raw264.7, BV2). Description: Wnt7b and Ninjurin1 quantified by RT-PCR in macrophages in the presence of rh-Ang1 or rh-Ang2. Conditions: 0, 1 and 2.5 ug/ml. The assay is classed as cell-based. On the procedure:
Primary cultured human microvascular pericytes (Applied Cell Biology Research Institute) were cultured in Dulbecco's modified Eagle's medium (DMEM); Raw 264.7 cells (TIB-71™) and BV2 cells were cultured in DMEM; and HUVEC cells were cultured in M199 supplemented with 20% FBS (Invitrogen, Grand Island, N.Y.). Those cells were cultured at 37° C. in humid air composed of […] and 5% CO2. Raw cells and BV2 cells were transformed by using Lipofectamine Plus Reagent (Invitrogen). Cell lysate was prepared by using lysis buffer (40 mM Tris-Cl pH 8.4, 10 mM EDTA, 120 mM NaCl, 0.1% NP-40). To prepare culture solution to treat human microvascular pericytes, transformed macrophages were cultured in serum (FBS)-free DMEM for 24 hours, which were then filtered with 0.22 […] filter paper (Millipore), followed by 10 fold concentration using centrifugation filtering tube (Millipore). For the chemical treatment, cells were cultured at the density of 60-70% and then treated with Ang1 and Ang2 (500-1000 ng/ml) independently or together in serum free condition for 14-16 hours. To understand signal transduction pathway, cells were transformed with Mock or Ninjurin1 cDNA. Serum was depleted for 14-16 hours and then the cells were treated with SB203580 (Sigma), the p38 inhibitor, for 24 hours.
Particularly, RT-PCR and real time PCR were performed as follows: Transformed BV2 cells were cultured in DMEM supplemented with 1% serum for 2 days, and then RNA was extracted by using Trizol reagent (Invitrogen). Following primers were used for RT-PCR: Gapdh: forward primer 5′-[…]-3′ (SEQ. ID. NO: 4), reverse primer 5′-[…]-3′ (SEQ. ID. NO: 5); Ninjurin1: forward primer 5′-GAGTCGGGCACTGAGGA-3′ (SEQ. ID. NO: 6), reverse primer: 5′-GTTGCAGGGGTCTGGTCA-3′ (SEQ. ID. NO: 7); Ang1: forward primer 5′-[…]-3′ (SEQ. ID. NO: 8), reverse primer: 5′-[…]-3′ (SEQ. ID. NO: 9); Ang2: forward primer 5′-[…]-3′ (SEQ. ID. NO: 10), reverse primer: 5′-[…]-3′ (SEQ. ID. NO: 11); Wnt7b: forward primer 5′-[…]-3′ (SEQ. ID. NO: 12), reverse primer: 5′-[…]-3′ (SEQ. ID. NO: 13); Wnt7b: 2nd round forward primer 5′-[…]-3′ (SEQ. ID. NO: 14), reverse primer: 5′-[…]-3′ (SEQ. ID. NO: 15). The PCR products were separated on 1.2% agarose gel containing EtBr (ethidium bromide), followed by analysis by digital imaging. Primers used for real-time PCR were as follows: Ang2: forward primer 5′-[…]-3′ (SEQ. ID. NO: 16), reverse primer: 5′-[…]-3′ (SEQ. ID. NO: 17); Gapdh, Ang1 and Wnt7: same primers as used for RT-PCR were used. […]
To investigate interaction among Wnt7b, Ninjurin1, Ang1 and Ang2, Wnt7b and Ninjurin1 were quantified by RT-PCR in the presence of recombinant human Ang1 (rh-Ang1) and rh-Ang2 at different concentrations (0, 1 and 2.5 ug/ml) in rodent originated macrophages (Raw264.7, BV2).

With `C[S+]([O-])c1ccc(-c2nc(-c3ccncc3)c(-c3ccc(F)cc3)[nH]2)cc1` (centres unmarked) [p38 inhibitor, SB203580], the “Wnt7b expression stimulated by Ninjurin1” value with Wnt7b expression is recorded as “reduced”.

B1: rh-Ang1: recombinant human Ang1 (angiopoietin-1), R&D Systems (protein, UniProt Q15389 16-498, looked up)
Angiopoietin-1: HIGCSNQRRSPENSGRRYNRIQHGQCAYTFILPEHDGNCRESTTDQYNTNALQRDAPHVEPDFSSQKLQHLEHVMENYTQWLQKLENYIVENMKSEMAQIQQNAVQNHTATMLEIGTSLLSQTAEQTRKLTDVETQVLNQTSRLEIQLLENSLSTYKLEKQLLQQTNEILKIHEKNSLLEHKILEMEGKHKEELDTLKEEKENLQGLVTRQTYIIQELEKQLNRATTNNSVLQKQQLELMDTVHNLVNLCTKEGVLLKGGKREEEKPFRDCADVYQAGFNKSGIYTIYINNMPEPKKVFCNMDVNGGGWTVIQHREDGSLDFQRGWKEYKMGFGNPSGEYWLGNEFIFAITSQRQYMLRIELMDWEGNRAYSQYDRFHIGNEKQNYRLYLKGHTGTAGKQSSLILHGADFSTKDADNDNCMCKCALMLTGGWWFDACGPSNLNGMFYTAGQNHGKLNGIKWHYFKGPSYSLRSTTMMIRPLDF
B1: in assay [1], the Ninjurin1 expression result is recorded as “reduced” and the Wnt7b expression result is “reduced”.

B2: rh-Ang2: recombinant human Ang2 (angiopoietin-2), R&D Systems (protein, UniProt O15123 19-496, looked up)
Angiopoietin-2: YNNFRKSMDSIGKKQYQVQHGSCSYTFLLPEMDNCRSSSSPYVSNAVQRDAPLEYDDSVQRLQVLENIMENNTQWLMKLENYIQDNMKKEMVEIQQNAVQNQTAVMIEIGTNLLNQTAEQTRKLTDVEAQVLNQTTRLELQLLEHSLSTNKLEKQILDQTSEINKLQDKNSFLEKKVLAMEDKHIIQLQSIKEEKDQLQVLVSKQNSIIEELEKKIVTATVNNSVLQKQQHDLMETVNNLLTMMSTSNSAKDPTVAKEEQISFRDCAEVFKSGHTTNGIYTLTFPNSTEEIKAYCDMEAGGGGWTIIQRREDGSVDFQRTWKEYKVGFGNPSGEYWLGNEFVSQLTNQQRYVLKIHLKDWEGNEAYSLYEHFYLSSEELNYRIHLKGLTGTAGKISSISQPGNDFSTKDGDNDKCICKCSQMLTGGWWFDACGPSNLNGMYYPQRQNTNKFNGIKWYYWKGSGYSLKATTMMIRPADF
As to B2, in assay [1], the Ninjurin1 expression result is recorded as “increased” and the Wnt7b expression entry is “increased”.
